Consider 1 substance from patent US20050232920A1.

For test [1], the target named is dog factor D (in dog serum) (dog). Nature of the test: cell-based or functional assay. The following applies: scale: times less effective than on human factor D.
In test [2] the target is factor D purified from human serum (human) (UniProt P00746). As to the kind of experiment: cell-based or functional assay.
Test [3] has the same target. As to the kind of experiment: SPR (BIAcore), factor D amine-coupled to the chip, MAb 166-32 as analyte. Background: Surface plasmon resonance follows binding to a sensor surface in real time, without labels.
The target is the same in test [4]. As to the kind of experiment: SPR (BIAcore), MAb captured by rabbit anti-mouse IgG, factor D as analyte.

As usually defined, the Kd is a measure of binding affinity in units of concentration. The term koff denotes the rate constant with which the complex falls apart. What is called kon is a measure of how fast the partners come together.

A value given as a limit tells only on which side of the number the result lay.

Chain of UniProt P00746 (P00746 26-253 N180D): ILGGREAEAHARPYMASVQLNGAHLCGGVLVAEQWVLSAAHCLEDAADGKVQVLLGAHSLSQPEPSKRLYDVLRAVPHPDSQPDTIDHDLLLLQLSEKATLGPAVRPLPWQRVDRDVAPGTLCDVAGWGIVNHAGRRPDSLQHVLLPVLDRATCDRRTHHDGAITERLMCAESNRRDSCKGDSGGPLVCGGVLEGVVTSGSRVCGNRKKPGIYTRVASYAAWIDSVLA

In the case of MAb 166-32 (antibody), the neutralization of factor D in hemolytic assays in test [1] was above 10. Moreover, in test [2], the alternative complement activity of plasma from extracorporeal circuits (hemolysis of rabbit red blood cells) (molar ratio (MAb: factor D)) stood at 1.5, the factor D dependent hemolysis of unsensitized rabbit RBCs (factor D depleted human serum with purified factor D added) is 0.3 µg/mL and the factor D dependent hemolysis of unsensitized rabbit RBCs: molar ratio for inhibition (molar ratio (MAb 166-32 to factor D)) stood at 0.5. For the same substance, in test [3], the equilibrium dissociation constant (Kd) came out at 0.16 nM, the koff stood at 7.6e-05 s⁻¹ and the kon is 460000 M⁻¹ s⁻¹. In test [4], this substance had a Kd below 0.1 nM, an off-rate (koff) of 0.00011 s⁻¹ and an on-rate (kon) above 1e+06 M⁻¹ s⁻¹.
